The values that follow come from US12618050B2, “Engineered polypeptides that exhibit increased catalytic efficiency for unnatural cofactors and uses thereof” (The Regents of the University of California, priority 2018, dated 2026).

Changes are numbered by the printed parent chain. Numbers in names are those of the source.

Data set [1] is described as follows: GDH enzymatic assay with NADP^+ as cofactor. The class given is biochemical. The following applies: cofactor NADP^+. How it is done:
(§1) GDH enzymatic assays. The GDH activity was measured as described in Hilt et al. (Biochimica et biophysica acta 1076(2):298-304 (1991)). The reactions were started by adding the purified protein to the assay mixture containing 35 mM Tris-HCl buffer (pH 8.0), 3 mM NAD^+, NADP^+ or NMN^+ and 140 mM glucose. The absorbance variation at 340 nm was detected by a spectrophotometer at 25° C.

Data set [2] is described as follows: XenA-GDH coupled cycling biotransformation of ketoisophorone to levodione. In kind it is biochemical. The procedure: Coupled enzymatic biotransformation. All biotransformation reactions were performed in buffer A at 30° C. for 24 hours. Reaction buffer A, modified from that disclosed in Chaparro-Riggers et al., Advanced Synthesis & Catalysis 349(8-9):1521-1531 (2007)), contained 200 mM potassium phosphate buffer (pH 7.5), 1 M NaCl, 300 mM D-glucose, 6 mM NMN^+ (or NADP^+ as the positive control), and substrates. All assays were performed in triplicate, with no proteins or no cofactors added as negative controls. The protein loading for GDH variants was kept at 0.33 mg mL^−1 or 11.7 μM. The various enzymes for biotransformation reactions were added at the concentration of 0.75 mg mL^−1.
For XenA-GDH coupled cycling assays, the substrates ketoisophorone, citral, or trans-2-hexen-1-al were added at 33 mM, 10 mM, or 50 mM, respectively. For the OYE3-GDH coupled cycling assays, the substrate 4-phenyl-3-butyn-2-one was added at 5 mM. At various time points over 24 hours, 100 μL samples were taken and extracted with 100 μL ethyl acetate. Conversion was determined via GC-FID with octanol as an internal standard (see below). For NfsB-GDH coupled cycling assays, 2 mM nitrofurazone was used as the substrate. Nitrofurazone conversion was measured spectroscopically at 400 nm and quantification was performed using a standard curve. The initial levels of the above-mentioned substrates were mainly determined by their solubility in the assay buffer. For BM3-GDH coupled cycling assays, 50 μM cytochrome c (C2506 Sigma) was used as the substrate. The reduction of cytochrome c was measured spectroscopically at 550 nm. and the quantification was performed using extinction coefficient ε550 of 21.1 mM^−1 cm^−1.
Coupled cycling conditions: All biotransformation reactions were performed in buffer A at 30° C. for 24 hours. Reaction buffer A contained 200 mM potassium phosphate buffer (pH 7.5), 1 M NaCl, 300 mM D-glucose, 6 mM NMN^+. Substrate ketoisophorone was added at 5 g/L. At various time points over 24 hours, 100 μL samples were taken and extracted with 100 μL ethyl acetate. Conversion was determined via GC-FID with octanol as an internal standard (see below).

Data set [3] can be described thus: Protein expression levels of GDH variants. More on the design: species or system Escherichia coli. The settings on record: expressed in E. coli. How it is done:
Proteins were purified as 6×His tag fusion at the N-terminus. E. coli BL21 (DE3) with plasmids were inoculated into LB medium with 200 mg L^−1 ampicillin. Cells were induced with 0.5 mM IPTG and expressed for 24 hours at 30° C. with shaking at 250 rpm. BM3 cytochrome P450 was extracted with the EMD Millipore™ BugBuste Plus Lysonase Kit and purified using the HisPur™ Ni-NTA Superflow Purification System according to the manufacturer's instructions. Other proteins were purified using His-Spin Protein Miniprep kit (Zymo Research Corporation, CA). The purified proteins were quantified by Bradford assay.

The nature of data set [4]: GDH enzymatic assay with NAD^+ as cofactor. The settings on record: cofactor NAD^+. In kind it is biochemical. How it is done: as §1
Data set [5] is described as follows: GDH enzymatic assay with NMN^+ as cofactor. The settings on record: for impact of mutation on activity towards NMN^+: without I195R. In kind it is biochemical. How it is done: as §1
Where [6] appears, read: specific activity towards NMN^+.

B1: I195R: Bs GDH, same sequence as SEQ ID NO:1 except I195R (SEQ ID NO:2) (protein)
chain: MYPDLKGKVVAITGAASGLGKAMAIRFGKEQAKVVINYYSNKQDPNEVKEEVIKAGGEAVVVQGDVTKEEDVKNIVQTAIKEFGTLDIMINNAGLENPVPSHEMPLKDWDKVIGTNLTGAFLGSREAIKYFVENDIKGNVINMSSVHEVIPWPLFVHYAASKGGIKLMTETLALEYAPKGIRVNNIGPGAINTPRNAEKFADPKQKADVESMIPMGYIGEPEEIAAVAAWLASKEASYVTGITLFADGGMTQYPSFQAGRG
modifications: I195R mutant GDH coding sequence
As to B1, the figures for the Kcat in data set [1], in data set [4] and in data set [5] (cofactor NMN^+) were 2.5 ± 0.21 s⁻¹, 7.3 ± 1.1 s⁻¹ and 1.1 ± 0.27 s⁻¹, respectively. In addition, the Km in data set [1] was determined as 16 ± 0.8 µM; in data set [4] it was 53 ± 9.2 µM; in data set [5] (cofactor NMN^+) it was 8900 ± 690 µM. The “initial productivity of levodione” value in data set [2] (NMN^+ as cycling cofactor, XenA in excess, GDH 11.7 μM) is ~0.51 µM/s. The “improvement of NMN^+-dependent productivity” value in data set [2] (versus wild type Bs GDH) turned out to be 10 fold. In data set [3], this molecule displayed an Expression level of 108.83 μg protein/ml culture. For the same molecule, the “improvement of specific activity towards NMN^+” value in data set [5] (versus wild-type Bs GDH) is 545 fold.

B2: L19H-I191S (protein)
chain: B1 chain with L19H, I191S, R195I
As to B2, the Expression level result in data set [3] was “No expression (<1) μg protein/ml culture”.

B3: G94S (protein)
chain: B1 chain with G94S, R195I
In data set [3], B3 had an Expression level of 117.50 μg protein/ml culture.

B4: M143G-L19G-I224R (protein)
chain: B1 chain with L19G, M143G, R195I, I224R
For the molecule B4, the Expression level result in data set [3] was “No expression (<1) μg protein/ml culture”.

B5: M143T (protein)
chain: B1 chain with M143T, R195I
B5 displayed an Expression level in data set [3] of 94.55 μg protein/ml culture.

B6: I195S (protein)
chain: B1 chain with R195S
B6 registered an Expression level in data set [3] of 96.33 μg protein/ml culture.

B7: A93K-Y39Q: Bs GDH variant A93K-Y39Q (protein)
chain: B1 chain with Y39Q, A93K, R195I
B7: the “impact of mutation on activity towards NMN^+” value (“impact of mutation” for short) in data set [5] is given as “lack of impact on activity”.

B8: I195R-Y39Q: Bs GDH variant I195R Y39Q (protein)
chain: B1 chain with Y39Q
In data set [3], B8 showed an Expression level of 57.60 μg protein/ml culture. In data set [5] (setting [6]), the “lower activity than GDH Triple” value is 14 fold and the “slower than I195R” value is listed as 2.4 fold.

B9: S17Q-P194N (protein)
chain: B1 chain with S17Q, P194N, R195I
As for B9, the Expression level in data set [3] stood at 117.63 μg protein/ml culture.

B10: A93K: Bs GDH with A93K substitution (SEQ ID NO:3) (protein)
chain: B1 chain with A93K, R195I
modifications: A93K mutant GDH coding sequence
Take B10: in data set [5], the “impact of mutation” value is “lack of impact on activity”.

B11: M143S (protein)
chain: B1 chain with M143S, R195I
With B11, the Expression level in data set [3] stood at 40.60 μg protein/ml culture.

B12: N92A (protein)
chain: B1 chain with N92A, R195I
In the case of B12, the Expression level in data set [3] turned out to be 81.16 μg protein/ml culture.

B13: I195R-A93K: Bs GDH variant I195R A93K (protein)
chain: B1 chain with A93K
On to B13, for which the Expression level in data set [3] is recorded as 11.17 μg protein/ml culture. Besides, the “lower activity than GDH Triple” value in data set [5] (setting [6]) is 9 fold.

B14: Y39Q: Bs GDH with Y39Q substitution (SEQ ID NO:4) (protein)
chain: B1 chain with Y39Q, R195I
modifications: Y39Q mutant GDH coding sequence
Take B14: the “impact of mutation” value in data set [5] is “lack of impact on activity”.

B15: N92V (protein)
chain: B1 chain with N92V, R195I
The molecule B15 registered an Expression level in data set [3] of 57.56 μg protein/ml culture.

B16: I195T (protein)
chain: B1 chain with R195T
With B16, in data set [3], the Expression level is listed as 105.51 μg protein/ml culture.
